Results from patent US20140322220A1 (Bayer, published 2014).
Positions count from the first letter of the chain named. Numbered stars: 1 amine (or outer) side, 2 acyl side, 3 side chain; on linkers, the order of the positions; unused ones are H or OH. Square brackets hold non-standard residues; d marks the D form. Ends that are not written are not given here. * marks the point of attachment. Biotin = O=C1N[C@H]2[C@H](CS[C@H]2CCCCC(=O)*)N1; Ttds = O=C(CCC(=O)[*:2])NCCCOCCOCCOCCCN[*:1]

T1: hFGFR1β-Fc (IIIc) (human, UniProt P11362-14 22-285, limits assumed, biotinylated with biotin-LC-NHS)
T1 construct: Bought, R&D Systems 661-FR
T1 sequence (looked up): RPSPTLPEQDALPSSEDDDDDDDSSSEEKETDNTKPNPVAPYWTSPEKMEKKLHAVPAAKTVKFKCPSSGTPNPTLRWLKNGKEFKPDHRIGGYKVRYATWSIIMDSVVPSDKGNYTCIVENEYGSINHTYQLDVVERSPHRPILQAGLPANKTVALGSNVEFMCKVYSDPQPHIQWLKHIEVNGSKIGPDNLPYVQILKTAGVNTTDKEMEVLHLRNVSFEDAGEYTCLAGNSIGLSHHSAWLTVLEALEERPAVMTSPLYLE

T2: hFGFR3-Fc (IIIb) (human, UniProt P22607-2 23-377, biotinylated with biotin-LC-NHS)
T2 construct: Bought, R&D Systems 1264-FR
T2 sequence (looked up): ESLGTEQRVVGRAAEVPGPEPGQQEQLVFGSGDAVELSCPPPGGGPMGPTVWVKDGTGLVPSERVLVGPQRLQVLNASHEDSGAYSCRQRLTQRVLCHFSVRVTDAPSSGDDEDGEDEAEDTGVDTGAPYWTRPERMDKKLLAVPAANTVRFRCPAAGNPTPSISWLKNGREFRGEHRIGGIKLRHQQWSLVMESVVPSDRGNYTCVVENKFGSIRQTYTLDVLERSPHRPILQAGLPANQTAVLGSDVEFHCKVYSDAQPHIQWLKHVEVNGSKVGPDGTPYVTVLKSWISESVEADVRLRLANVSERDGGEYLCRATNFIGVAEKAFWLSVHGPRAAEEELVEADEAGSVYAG

T3: hFGFR4-Fc (human, UniProt P22455 22-369, biotinylated with biotin-LC-NHS)
T3 construct: Bought, R&D Systems, printed Cat. No. 685-MF
T3 sequence (looked up): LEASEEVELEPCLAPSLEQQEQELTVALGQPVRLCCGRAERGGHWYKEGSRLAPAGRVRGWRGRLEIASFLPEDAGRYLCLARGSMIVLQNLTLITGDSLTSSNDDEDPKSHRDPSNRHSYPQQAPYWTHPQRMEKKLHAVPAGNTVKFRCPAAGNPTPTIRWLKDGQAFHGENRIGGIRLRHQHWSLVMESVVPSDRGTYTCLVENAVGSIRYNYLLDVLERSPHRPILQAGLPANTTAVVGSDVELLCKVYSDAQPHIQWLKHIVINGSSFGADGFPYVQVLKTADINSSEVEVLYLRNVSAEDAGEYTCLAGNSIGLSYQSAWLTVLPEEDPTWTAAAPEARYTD

T4: RPSFSLVEDTTLEPEG-Ttds-Lys(Biotin) (human)
T4 construct: Synthesized by JPT Peptide Technology
T4 peptide: RPSFSLVEDTTLEPEG[Ttds]K(Biotin)

T5: hFGFR2β-Fc (IIIb) (human, UniProt P21802 22-377, biotinylated with biotin-LC-NHS)
T5 construct: also called FGFR2-2β Fc (IIIb)
T5 chain: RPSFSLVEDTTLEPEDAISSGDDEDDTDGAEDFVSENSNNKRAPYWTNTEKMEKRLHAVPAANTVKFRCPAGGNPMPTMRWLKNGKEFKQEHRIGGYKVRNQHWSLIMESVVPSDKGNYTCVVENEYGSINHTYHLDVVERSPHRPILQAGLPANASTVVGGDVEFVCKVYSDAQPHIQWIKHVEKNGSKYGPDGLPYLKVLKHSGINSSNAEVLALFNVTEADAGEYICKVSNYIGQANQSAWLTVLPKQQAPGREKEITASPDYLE

T6: hFGFR2α-Fc (IIIb) (human, UniProt P21802 22-377, biotinylated with biotin-LC-NHS)
T6 construct: Bought, R&D Systems 663-FR, soluble Fc fusion
T6 chain: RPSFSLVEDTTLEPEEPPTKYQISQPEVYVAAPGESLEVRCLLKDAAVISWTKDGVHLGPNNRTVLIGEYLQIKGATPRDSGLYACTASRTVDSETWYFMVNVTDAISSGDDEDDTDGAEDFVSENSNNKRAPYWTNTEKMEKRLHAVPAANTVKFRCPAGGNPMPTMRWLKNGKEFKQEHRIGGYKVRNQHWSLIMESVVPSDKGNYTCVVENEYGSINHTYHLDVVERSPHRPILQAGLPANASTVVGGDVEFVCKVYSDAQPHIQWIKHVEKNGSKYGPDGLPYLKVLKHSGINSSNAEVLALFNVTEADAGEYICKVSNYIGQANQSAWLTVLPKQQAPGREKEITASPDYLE

B1: M017-B02 (soluble Fab) (Fab, V domains shown)
VH: EVQLLESGGGLVQPGGSLRLSCAASGFTFRTSGMHWVRQAPGKGLEWVAVISYDGSNKYYADSVKGRFTISRDNSKNTLYLQMNSLRAEDTAVYYCARESPGYDFEYWGQGTLVTVSS
VL: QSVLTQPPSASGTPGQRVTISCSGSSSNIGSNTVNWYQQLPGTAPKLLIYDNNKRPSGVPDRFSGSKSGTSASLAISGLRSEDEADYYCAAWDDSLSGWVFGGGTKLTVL
notes: Soluble Fab from E. coli, purified through its His-tag
B2: M054-D03 (soluble Fab) (Fab, V domains shown)
VH: B1 VH with R30S, T31N, S32Y, R98K, S100T, P101N, G102D, Y103V, D104P, E106D
VL: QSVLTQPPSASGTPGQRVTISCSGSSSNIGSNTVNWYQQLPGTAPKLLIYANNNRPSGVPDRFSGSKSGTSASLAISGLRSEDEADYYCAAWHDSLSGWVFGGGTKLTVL
notes: as for B1
B3: M047-D08 (soluble Fab) (Fab, V domains shown)
VH: B1 VH
VL: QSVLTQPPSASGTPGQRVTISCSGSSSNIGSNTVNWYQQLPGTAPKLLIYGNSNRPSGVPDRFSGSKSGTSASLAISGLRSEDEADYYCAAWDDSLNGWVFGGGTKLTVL
notes: as for B1
B4: TPP-1398 (antibody, human IgG1, lambda, V domains shown)
VH: EVQLLESGGGLVQPGGSLRLSCAASGFTFSSYAMSWVRQAPGKGLEWVSAISRSGGSTYYADSVKGRFTISRDNSKNTLYLQMNSLRAEDTAVYYCARVRYIWNEGDWFDPWGQGTLVTVSS
VL: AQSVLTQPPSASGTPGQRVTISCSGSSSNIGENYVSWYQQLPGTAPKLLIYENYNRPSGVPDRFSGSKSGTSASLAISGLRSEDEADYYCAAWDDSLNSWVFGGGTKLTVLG
notes: Matured variant of M048-D01
B5: TPP-1399 (antibody, human IgG1, lambda, V domains shown)
VH: B4 VH with R53K, Y59F, I102K, N104G
VL: AQSVLTQPPSASGTPGQRVTISCSGSSSNIGENYVSWYQQLPGTAPKLLIYENYKRPSGVPDRFSGSKSGTSASLAISGLRSEDEADYYCAAWDDSGNSWVFGGGTKLTVLG
notes: Matured variant of M048-D01
B6: TPP-1401 (antibody, human IgG1, lambda, V domains shown)
VH: B4 VH with R53K, Y59F
VL: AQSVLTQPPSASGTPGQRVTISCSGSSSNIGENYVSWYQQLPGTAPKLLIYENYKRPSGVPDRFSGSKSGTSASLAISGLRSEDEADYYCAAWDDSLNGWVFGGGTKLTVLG
notes: Matured variant of M048-D01
B7: TPP-1402 (antibody, human IgG1, lambda, V domains shown)
VH: B4 VH with R53K, Y59F, E105H
VL: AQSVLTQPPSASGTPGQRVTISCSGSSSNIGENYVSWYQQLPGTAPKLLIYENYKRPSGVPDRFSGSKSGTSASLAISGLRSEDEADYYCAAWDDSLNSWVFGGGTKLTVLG
notes: Matured variant of M048-D01
B8: TPP-1400 (antibody, human IgG1, lambda, V domains shown)
VH: B4 VH
VL: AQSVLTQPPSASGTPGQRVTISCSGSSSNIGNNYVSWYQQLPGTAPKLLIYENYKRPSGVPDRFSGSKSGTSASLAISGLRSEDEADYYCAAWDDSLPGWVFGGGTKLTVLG
notes: Matured variant of M048-D01

target: T1, hFGFR1β-Fc (IIIc); assay: ELISA on coated biotinylated Fc fusion
Experimental: (§1) For the ELISA 96-well plates pre-coated with streptavidin (Pierce, 15500) were coated over night at 4° C. with 1 μg/ml biotinylated protein. Wells coated with biotinylated TRAIL-Fc served as a reference. The next day plates were washed 3 times with PBST, treated with blocking reagent, and washed again 3 times with PBST. 100 μl of purified Fabs (1 μg/ml) were added and incubated for 1 h at r.t. After washing 3 times with PBST, an anti-hIgG (Fab-specific) coupled to HRP (1:2500 diluted; Sigma; A 0293) was added and incubated for 1 h at Lt. Color reaction was developed by addition of 50 μl TMB (Invitrogen, 2023) and stopped after 5-15 min by adding 50 μl H₂SO₄ (Merck, 1120801000). Colorimetric reaction was recorded at […] in a plate reader (Tecan). Wells containing TRAIL-Fc were used as background values and the signal to background ratios were calculated as summarized in Table 4.

| binding result | Binder |
| --- | --- |
| no binding | B1 |
| no binding | B2 |
| no binding | B3 |

target: T2, hFGFR3-Fc (IIIb); assay: ELISA on coated biotinylated Fc fusion
Experimental: as §1

| binding result | Binder |
| --- | --- |
| no binding | B1 |
| no binding | B2 |
| no binding | B3 |

target: T3, hFGFR4-Fc; assay: ELISA on coated biotinylated Fc fusion
Experimental: as §1

| binding result | Binder |
| --- | --- |
| no binding | B1 |
| no binding | B2 |
| no binding | B3 |

Target: T4, RPSFSLVEDTTLEPEG-Ttds-Lys(Biotin)
Assay: peptide binding ELISA; against TPP-1403
Excerpt: (§2) Two different types of ELISA were used to determine the binding improvement of mutated variants: a) Peptide Binding ELISA: a synthetic peptide comprising the amino acid sequence of the epitope linked C-terminally to a biotinylated lysine […]-Ttds-Lys(Biotin) (peptide sequence derived from SEQ ID NO:63, synthesized by JPT Peptide Technology GmbH, Berlin, Germany), and b) Recombinant Protein Binding ELISA: recombinant human FGFR2 (DNA sequence of human FGFR2 (NP 000132.3) Met 1-Glu 377, fused with a polyhistidine tag at the C-terminus; #10824-1-1081-1, Sin θ Biological Inc., Beijing, China).
(§3) Briefly, in both ELISA formats MTP plates (384 well Maxisorp, Nunc) were coated with 20 μl, anti-human IgG Fc specific (#12136; sigma) at 2.2 μg/ml for 2.5 h at 37° C. in coating buffer (#121125 Candor Bioscience GmbH). […] Anti-FGFR2 variants were immobilized in concentrations of 0.035 μg/ml (peptide based assay) or 0.2 μg/ml (recombinant human FGFR2 protein based assay) in 10% Smart Block in PBST depending on the format and variants to be analyzed by incubation of 20 μl for one hour at 20-22° C. After one washing step using 50 μl PBST, 20 μl quadruplets of the antigen dilution series in 10% SmartBlock in PBST with a maximum concentration of 100 nM were added and incubated for 1 h at 20-22° C. and the washing step was repeated 3 times. For the detection of the biotinylated epitope peptide 20 μl of streptavidine/POD conjugate (# S5512, Sigma) in a 1:1000 dilution in 10% SmartBlock in PBST were applied for one hour at 20-22° C. For the detection of the recombinant FGFR2 protein 20 μl of anti-His/HRP conjugate (#71840, novagen) in a 1:10000 dilution in 10% SmartBlock in PBST were applied for one hour at 20-22° C. After 3 washing steps 20 μl of 10 μM amplex red substrate (# A12222, Invitrogen) in 50 mM Sodium hydrogen phosphate, pH 7.6, were added and the fluorescence signal was detected using a common fluorescence reader, e.g. Tecan M1000. EC50 values were evaluated by fitting the data (Sigmoida) dose-response, variable slope, bottom set to background; GraphPad Prism software).

| fold EC50 reduction | Binder |
| --- | --- |
| > 2000 fold | B4 |
| > 1500 fold | B5 |
| > 1700 fold | B6 |
| > 1500 fold | B7 |
| > 1100 fold | B8 |

target: T7, recombinant human FGFR2 (Met 1-Glu 377) with C-terminal polyhistidine tag (human, UniProt P21802 22-377); assay: protein binding ELISA; against TPP-1403
T7 construct: The range is that of the expressed DNA and begins at Met 1; also called His-tagged FGFR2; recombinant human FGFR2-IIIc molecule
Excerpt: as §2, §3

| fold EC50 reduction | Binder |
| --- | --- |
| 39 fold | B4 |
| 39 fold | B5 |
| 39 fold | B6 |
| 37 fold | B7 |
| 17 fold | B8 |

target: T7, recombinant human FGFR2 (Met 1-Glu 377) …; assay: protein binding ELISA, antibody captured by anti-human IgG Fc, FGFR2-His titrated
Excerpt: as §2, §3

| EC50 | Binder |
| --- | --- |
| 0.2 nM | B4 |
| 0.21 nM | B5 |
| 0.2 nM | B6 |
| 0.22 nM | B7 |
| 0.48 nM | B8 |

Target: T5, hFGFR2β-Fc (IIIb)
Assay: ELISA, 1 ug/ml Fab on coated antigen; grade of signal to background (+ 2-3, ++ 3-5, +++ >5)
Experimental: as §1

| ELISA signal to background ratio | Binder |
| --- | --- |
| > 5 ratio | B1 |
| 2 to 3 ratio | B2 |
| > 5 ratio | B3 |

Target: T6, hFGFR2α-Fc (IIIb)
Assay: as above
Experimental: as §1

| ELISA signal to background ratio | Binder |
| --- | --- |
| > 5 ratio | B1 |
| 3 to 5 ratio | B2 |
| > 5 ratio | B3 |

target: T8, mFGFR2β-Fc (IIIb) (murine, UniProt P21803-2 22-263, limits assumed, biotinylated with biotin-LC-NHS); assay: as above
T8 construct: Bought, R&D Systems 708-MF
T8 sequence (P21803 other isoform, or with tags, fused parts or gaps limits assumed): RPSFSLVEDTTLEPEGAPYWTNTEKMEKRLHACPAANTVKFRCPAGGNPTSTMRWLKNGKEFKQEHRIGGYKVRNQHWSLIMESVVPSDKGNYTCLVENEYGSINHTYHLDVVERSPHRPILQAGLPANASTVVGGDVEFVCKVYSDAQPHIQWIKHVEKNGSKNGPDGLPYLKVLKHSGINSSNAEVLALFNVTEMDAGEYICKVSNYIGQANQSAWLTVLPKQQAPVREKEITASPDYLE
Experimental: as §1

| ELISA signal to background ratio | Binder |
| --- | --- |
| > 5 ratio | B1 |
| 3 to 5 ratio | B2 |
| > 5 ratio | B3 |

Target: T4, RPSFSLVEDTTLEPEG-Ttds-Lys(Biotin)
Assay: peptide binding ELISA, antibody captured by anti-human IgG Fc, biotinylated peptide titrated
Excerpt: as §2, §3

| EC50 | Binder |
| --- | --- |
| 5 pM | B4 |
| 6 pM | B5 |
| 6 pM | B6 |
| 7 pM | B7 |
| 9 pM | B8 |
